Test results taken from patent CN115991785A (SHANGHAI MIAOJU BIOTECHNOLOGY CO LTD; UNIV SHANGHAI JIAOTONG, dated 2023).

Legend:
[1] = target: T1, MATN3-Fc抗原 (MATN3-Fc antigen) (human, UniProt O15232 29-486, limits assumed); experiment: SPR (Biacore, CM5 chip, amine coupling, 1:1 binding model)
T1 construct: not shown: Fc part
T1 sequence (looked up): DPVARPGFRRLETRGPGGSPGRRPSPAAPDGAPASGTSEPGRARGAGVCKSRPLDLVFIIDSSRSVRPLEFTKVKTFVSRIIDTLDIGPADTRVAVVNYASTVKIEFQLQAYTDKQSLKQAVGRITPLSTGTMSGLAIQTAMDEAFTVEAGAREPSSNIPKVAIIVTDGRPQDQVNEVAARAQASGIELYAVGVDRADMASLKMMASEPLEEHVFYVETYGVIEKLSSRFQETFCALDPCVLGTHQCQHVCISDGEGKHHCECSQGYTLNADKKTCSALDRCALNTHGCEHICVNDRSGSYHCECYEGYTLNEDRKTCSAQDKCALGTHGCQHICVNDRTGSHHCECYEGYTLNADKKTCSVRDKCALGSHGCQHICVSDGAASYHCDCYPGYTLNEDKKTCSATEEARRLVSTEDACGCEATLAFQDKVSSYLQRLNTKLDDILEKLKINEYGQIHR

[2] = target: CD34-Fc抗原 (CD34-Fc antigen); experiment: as above
Sequence of CD34-Fc抗原 (CD34-Fc antigen) (P28906 32-290): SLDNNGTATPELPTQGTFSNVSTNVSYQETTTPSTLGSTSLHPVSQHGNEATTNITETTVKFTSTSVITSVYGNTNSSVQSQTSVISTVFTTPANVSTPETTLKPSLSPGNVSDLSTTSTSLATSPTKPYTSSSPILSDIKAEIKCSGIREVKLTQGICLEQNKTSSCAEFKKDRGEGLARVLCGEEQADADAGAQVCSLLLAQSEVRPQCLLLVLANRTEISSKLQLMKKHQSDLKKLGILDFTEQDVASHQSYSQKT

Kd [1]: 0.00895 nM
Kd [2]: 8.53 nM
B1: CD34×MATN3双特异性抗体 (CD34×MATN3 bispecific antibody, IgG1-scFv form) (bispecific antibody)
chain 1: EIQLQQSGPELMKPGASVKISCKASGYSFTSYYMHWVKQSQGKSLEWIGFIDPFNGGITYNQKFKGKATLTVDRSSSTAYMHLRSLTSEDSAVYYCARCYYNYDDEGRAMDYWGQGTSVTVSS
chain 2: DIQMTQSPSSLSASLGERVSLTCRASQDIGSSLNWLQQGPDGTFKRLIYATSSLDSSVPKRFSGSRSGSDYSLTISSLESEDFVDYYCLQYASSPYTFGGGTKLEIKR
chain 3: EVQLVQSGAEVKKPGASVKVSCKASGGTFSSYAISWVRQAPGQGLEWMGGIIPIFGTANYAQKFQGRVTITADKSTSTAYMELSSLRSEDTAVYYCARGQGYWFDPWGQGTLVTVSS
chain 4: DVQLTQSPSSLSASVGDRVTITCQASQDISNYLNWYQQKPGKAPKLLIYDASNLETGVPSRFSGSGSGTDFTFTISSLQPEDIATYYCQQYDNLPLTFGGGTKLEIKR
